{"source": "patent US10221404B2", "about": "“Method for modifying characteristics of a lipase” (Novozymes A/S, priority 2014, dated 2019)", "molecules": {"B1": {"name": "RmL: Rhizomucor miehei lipase mature protein (SEQ ID NO: 3), without propeptide (protein, listed as Rhizomucor miehei)", "chain": "SIDGGIRAATSQEINELTYYTTLSANSYCRTVIPGATWDCIHCDATEDLKIIKTWSTLIYDTNAMVARGDSEKTIYIVFRGSSSIRNWIADLTFVPVSYPPVSGTKVHKGFLDSYGEVQNELVATVLDQFKQYPSYKVAVTGHSLGGATALLCALDLYQREEGLSSSNLFLYTQGQPRVGDPAFANYVVSTGIPYRRTVNERDIVPHLPPAAFGFLHAGEEYWITDNSPETVQVCTSDLETSDCSNSIVPFTSVLDHLSYFGINTGLCT"}}, "key": {"[1]": {"assay": "AMSA wash performance, specificity of inhibitory effect of propeptide", "description": "(§1) Washing experiments were performed using Automatic Mechanical Stress Assay (AMSA) in order to assess the wash performance in laundry. The AMSA plate has a number of slots for test solutions and a lid firmly squeezing the laundry sample, the textile to be washed against all the slot openings. During the washing time, the plate, test solutions, textile and lid were vigorously shaken to bring the test solution in contact with the textile and apply mechanical stress in a regular, periodic oscillating manner. For further description see WO02/42740 especially the paragraph “Special method embodiments” at page 23-24.\n(§2) The laundry experiments were conducted in Model Detergent B, pH8. The experimental conditions are specified below:\n(§3) Final adjustments to the specified pH were done with NaOH or citric acid. Water hardness was adjusted to 15° dH by addition of CaCl2 and MgCl2 (Ca^2+:Mg^2+=4:1) to the test system.\n(§4) After washing the textiles were flushed in tap water and excess water was removed from the textiles using filter paper and immediately thereafter the textiles were dried at 85° C. for 5 min.\n(§5) The wash performance was measured as the color change of the washed soiled textile. The soil was cream mixed with turmeric. Turmeric contains the colorant curcumin, which function as a pH indicator by having pH dependent color change. Lipase activity leads to release of free fatty acids from the cream acylglycerides and this leads to pH decrease and thereby color change of the curcumin pH indicator. Lipase wash performance can therefore be expressed as the extent of color change of light reflected-emitted from the washed soiled textile when illuminated with white light.\n(§6) Color measurements were made with a professional flatbed scanner (EPSON EXPRESSION 10000XL, Atea NS, Lautrupvang 6, 2750 Ballerup, Denmark), which was used to capture an image of the washed soiled textile. To extract a value for the light intensity from the scanned images, 24-bit pixel values from the image were converted into values for red, green and blue (RGB).\n(§7) Color change due to lipase activity was measured as the increase in the reflection-emitting of green light (G) relative to the sum of reflected-emitted blue (B) and red (R) light. The wash performance (RP(Wash)) of a lipase relative to a reference lipase (Lipolase™) was calculated as: RP(Wash)=(G/(B+R)(tested lipase)−G/(B+R)(no enzyme))/(G/(B+R)(lipase ref.)−G/(B+R)(no enzyme)).\nThe inhibitory specificity of the isolated propeptide was determined by mixing the isolated propeptide in a 320:1 molar ratio with 5 different lipases including the active RmL. All enzymes were diluted in 10 mM succinic acid buffer, pH6.5, to a concentration of 1.5 uM and were mixed (1:1) with purified propeptide dilutions. After 3 hours incubation at 4° C. the lipase performance of the incubated lipase-inhibitor samples were determined by Automatic Mechanical Stress Assay (AMSA) as described above. The relative wash performance “RP(wash)” is for each lipase normalized to the wash performance without inhibitor."}, "[2]": {"assay": "Hydrolytic activity, kinetic assay with p-nitrophenyl acyl esters", "format": "biochemical", "conditions": "substrates C3, C6, C10, C12, C16 at 1 mM; 50 mM Tris pH 7.7, 0.4% TritonX-100; 405 nm for 5 minutes", "description": "The hydrolytic activity of RmL with and without propeptide on various fatty acids was investigated in a kinetic assay using p-nitrophenyl acyl esters as substrate. The 100 mM stock solutions in DMSO of the substrates: p-Nitrophenyl butyrate (C3), p-Nitrophenyl caproate (C6), p-Nitrophenyl caprate (C10), p-Nitrophenyl laurate (C12) and p-Nitrophenyl palmitate (C16) (all from Sigma-Aldrich Danmark NS, Kirkebjerg Allé 84, 2605 Brondby; Cat. no.: C3:N-9876, C6: N-0502, C10: N-0252, C12: N-2002, C16: N-2752) were diluted to a final concentration of 1 mM into assay buffer (50 mM Tris; pH 7.7; 0.4% TritonX-100).\nRmL with and without propeptide and appropriate controls: Buffer (negative), Lipex™ (positive) RmL with and without propeptide in 50 mM Hepes pH8.0; 10 ppm TritonX-100; 20 mM CaCl2 were added to the substrate solution in the following final concentrations: 0.01 mg/mL; 5×10^−3 mg/mL; […]; and 1.25×10^−4 mg/mL in 96-well NUNC plates (Cat. No: 260836, Kamstrupvej 90, DK-4000, Roskilde). Release of p-nitrophenol by hydrolysis of p-nitrophenyl acyl was monitored at 405 nm for 5 minutes in 10 second intervals on a Spectra max 190 (Molecular Devices GmbH, Bismarckring 39, 88400 Biberach an der Riss, GERMANY)."}, "[3]": {"assay": "AMSA wash performance after activation with detergent and/or protease", "parameters": "key to No (RP) / Det (RP) / Sav (RP) / Det + Sav (RP): wash performance relative to reference lipase (Lipolase), RP ratio", "description": "as §1, §2, §3, §4, §5, §6, §7\nWild type RmL without or with propeptide respectively were submitted to no, detergent, protease or detergent+protease treatment prior to performance test in AMSA to test the activation level of the lipase after the treatment. […] […] Wash performance of all samples were determined by Automatic Mechanical Stress Assay (AMSA) as described above."}, "[4]": {"assay": "AMSA wash performance, propeptide dose response", "conditions": "Model B/50 mM glycine pH 8; normalized to wash performance without inhibitor; 3 hours incubation at 4° C.", "description": "as §1, §2, §3, §4, §5\nColor measurements were made with a professional flatbed scanner (EPSON EXPRESSION 10000XL, Atea NS, Lautrupvang 6, 2750 Ballerup, Denmark), which was used to capture an image of the washed soiled textile. […]\nas §7\nThe inhibitory effect of the isolated propeptide (PP) was determined by mixing isolated propeptide in molar excess with separately purified active RmL core-enzyme at increasing molar ratios of propeptide to lipase. […] After 3 hours incubation at 4° C. lipase wash performance of the incubated lipase-inhibitor samples were determined by Automatic Mechanical Stress Assay (AMSA) as described above. […]"}, "[5]": {"assay": "Thermostability by Differential Scanning Calorimetry (DSC)", "format": "physicochemical", "conditions": "50 mM HEPES, 100 mM NaCl, 1 mM CaCl2, pH8.0; heating rate 200 K/hr", "description": "The thermostability of Rhizomucor miehei lipase, RmL (SEQ ID NO: 3) with or without non covalently bound native propeptide (SEQ ID NO: 4) was determined by Differential Scanning calorimetry (DSC) using a VP-Capillary Differential Scanning calorimeter (MicroCal Inc., Piscataway, N.J., USA).\nThe thermal denaturation temperature, Td (° C.), was taken as the top of denaturation peak (major endothermic peak) in thermograms (Cp vs. T) obtained after heating enzyme solutions in buffer (50 mM HEPES; 100 mM NaCl; 1 mM CaCl2; pH8.0) at a constant programmed heating rate of 200 K/hr. RmL without propeptide added was analyzed at a concentration of 0.42 mg/mL, where as in presence of propeptide the concentration of RmL was 0.34 mg/mL as a consequence of mixing of 440 uL enzyme solution (at 0.42 mg/mL) and 100 uL peptid solution at a concentration of 480 uM (concentration determined by amino acid analysis)\nSample- and reference-solutions (approx. 0.2 mL) were loaded into the calorimeter (reference: buffer without enzyme) from storage conditions for 3 hours (mixing) at 10° C. and thermally pre-equilibrated for approx. 20 minutes at 20° C. prior to DSC scan from 20° C. to 100° C. Denaturation temperatures were determined at an accuracy of approximately +/−1° C."}}}
{"molecule": "B1", "values": [{"measurement": "With inhibitor RP (wash)", "setting": "[1]; propeptide SEQ ID No: 4 in 320:1 molar ratio, 3 hours at 4° C., normalized to wash performance without inhibitor", "value": 0.02}, {"measurement": "No inhibitor RP (wash)", "setting": "[1]; without propeptide SEQ ID No: 4, normalized per lipase", "value": 1.00}, {"measurement": "hydrolytic activity on p-nitrophenyl acyl esters", "setting": "[2]", "value": "activity in all conditions tested"}, {"measurement": "No (RP)", "setting": "[3]; 60 minutes in 10 mM succinic acid pH6.5", "value": 1.00}, {"measurement": "Sav (RP)", "setting": "[3]; 60 minutes in 1.35% (v/v) Savinase in 10 mM succinic acid pH6.5", "value": 0.99}, {"measurement": "Det + Sav (RP)", "setting": "[3]; 60 minutes in 1.35% (v/v) Savinase in 77% (w/w) Detergent B", "value": 0.84}, {"measurement": "Det (RP)", "setting": "[3]; 60 minutes in 77% (w/w) Model detergent B", "value": 0.89}, {"measurement": "RP (wash) Rep. 1", "setting": "[4]", "value": 1.00}, {"measurement": "RP (wash) Rep. 2", "setting": "[4]", "value": 1.00}, {"measurement": "RP (wash) Rep. 3", "setting": "[4]", "value": 1.00}, {"measurement": "RP (wash) Rep. 4", "setting": "[4]", "value": 1.00}, {"measurement": "Thermostability Td at pH 8.0", "setting": "[5]", "value": 61, "unit": "°C"}]}
